Assay results taken from a protein production outcome set (Wang et al. 2014).

Experiment: label from the status in PepcDB records

| Sequence | protein production |
| --- | --- |
| MLKLSNFGPGALVAAAFIGPGTVVTASLAGANFGYALLWALLFSVVACVILQEMSARIGLVTQAGLGENIRNNLTSGWLRWLALLLIFSAIAIGNSVYQGGNLSGASLGASELLGPVPVLDVWLSNAWALIIGIIALLILWSGNARVIERALIVMVLLMSVAFIGTFLLTDPDWGAVFNGTFGFSMPTGATLTVVALIGTTVVPYNIFLHASSVSKKWKTAEELPAARRDLFLSIPFGGLISMAIVATAASAFFGQQVEIESAGDLAESLRPLFGDGATYLMAIGLFAAGISSATTAPLASAYALCGIMGWSVNLRSRAFRIIWFTILVIGIIISSVGIKPVTVIWFAQVANGILLPIIVGFLWWLCQSPLLGKYRNSLLQNILAAIIFLISVVLSGRSLGSAFGFW | failed |
| MIIIKNGALVTPQGLRRADLAMEGDKIVRIAAAIEPGEDDTVQDATDCWVFPGFIDGHTHMQCWTGMDWTADSFETGTRAAVCGGTTTIVDYATADRGVTMPDALVEWHHRADGTCTANYAFHMALAEWNERNRADLSAMREAGVSSFKTYFAYDHLRLDDAETLEVLEELKRVGGILCVHCENGTLVNALQKRVFEQGIHGPEGHALSRPDVCEGEAVSRLLYLAHLAGDAPVNVVHLSTKLGLEAIRAAKARGQKNIYVETCPQYLMLDDTCYLEQGEDGFAGAKYVMSPPLRHAGDRAALREALVAGEIDTIATDHCSFNLHGQKDRGRDDFRAIPNGGPGVEHRPVAIATSFEGQLGPEDLCRLMSENPARVFGMYPRKGCLAEGADADVCVWDPQARWTIRAATQHQAVDYTPLEGFEAHGRAKAVFVNGVLAARDGEPTGAQPGRYVPR | failed |
| MSDWTDGYVAEIDYTHGFYRELTPAHLRFCLLSRGLRAPEEDAGVSYCELGFGQGVTLNIVAATHPLASVWGTDFNPSHAAAARQLSLDGGTANTAFGDDSFEEFLAREDLPTFDFIVLHGIYSWISAENRAVIGRFLRRRLKVGGVVYISYNTLPGWAAIMPLRALMIDHAKAERAGMTERVDKALAFARTLAEGKAGYFTANPAVAPRLEKMATMSRNYLAHEYFNRDWTPLYHADVVRELTAAKLSFAASAHVTDLIDVVALSAPGREMLAAVNDPLFRETLRDYIVNQQFRRDIFTRGALRLTPLEQIEGLRAQRLALIVPRATIPEKATFPIGTTDLKPEIYGPFFDRLDKGPITLADLAAAEPALAPLPLATLHQAALVAISQGWVAPCPEAAGEGARRKATKRFNAAVLERARRSADLTVLASPVLGGGLGVDRIQQLFLLARAEKHPDPASFVWGILSSQGQRLVKEGKPLEDVDQNMAELRLRAQTFTDSFLPLYDRLGIV | failed |
| MKSHKMMGGGISMHYITACLKIISDKDLNEIMKEFKKLEEETNKEEGCITFHAYPLEPSERKIMLWEIWENEEAVKIHFTKKHTIDVQKQELTEVEWLMKSNVND | not failed |
| HPMCKEHEDEKINIYCLTCEVPTCSMCKVFGIHKACEVAPLQSVFQGQKTE | not failed |
| SDIVRKTIDNDISTKWRLKTLSEKLNLSEVTIRKKLENENTNFYRILLDARMQKAARLVLDSDTHINKVSYAVGMSSVSYFIKLFSDYYGLTPKQFHLKYKHRNTGEKAAFMLYN | failed |
| MLTEVSDTRIAHKKFGLFYPSVSRPSIFVEGEDRKNFLQGIASQDILKQDEKSLSYSFFLNPKARILFDAWCGNFEDKIALFPPAGTREEFVNHLKKYLFFRTKAKITDMSDHFREIRLVGPETISVLLSLFDNNFSGSSFRMLKNGGYVLIHPTSFQHNLDVGLQADLFIPIDQFETTQKSLEDFTSNKGGVLLDESSYLAYLTEKGIPLFPSELNDSFFPAEAGLDSVGVSYNKGCYVGQEPVTRLKFQGHLNRSLAGFRLEGGPFPKMEFPVTLFNPKDGNEAGILTRTSSSDILGSGIGLGYIKRNFSENGTELLLPDAQLVRVHSLPFV | not failed |
| MRTLKVQALWDGEAGVWVAESDDVPGLATEAATLEELLAKLAVMVPELLEENGVALELPVELRLEATRPLVFS | not failed |
| MGHHHHHHSHMIRINEIKLPLDHEEGALLDAITKKLGIPAEKVISFNVFRRGYDARKKTNIHLIYTLDIIVEGDETALLAKFANDPHVRQTPDMEYKFVAKAPENLTERPIVIGFGPCGLFAGLVLAQMGFNPIIVERGKEVRERTKDTFGFWRKRTLNPESNVQFGEGGAGTFSDGKLYSQVKDPNFYGRKVITEFVEAGAPEEILYVSKPHIGTFKLVTMIEKMRATIIELGGEIRFSTRVDGLHMEDGQITGVTLSNGEEIKSRHVVLAVGHSARDTFEMLHERGVYMEAKPFSVGFRIEHKQSMIDEARFGPNAGHPILGAADYKLVHHCKNGRTVYSFCMCPGGTVVAATSEEGRVVTNGMSQYSRAERNANSAIVVGISPEVDYPGDPLAGIRFQRELESNAYKLGGENYDAPAQKIGDFLKGRDPSQLGDVEPSFTPGIKLTDLSKALPPFAVEAIREAIPAFDRKIKGFASEDGLLTGVETRTSSPVCIKRGKDFQSVNLKGFYPAGEGAGYAGGILSAGIDGIKVAEAVARDIVAAMENA | not failed |
| MSTIFDIRNLRLPQLSRASVVIGSLVVVLALAAGIVGVRLYQKLTNNTVVAYFTQANALYVGDKVQIMGLPVGSIDKIEPAGDKMKVTFHYQNKYKVPANASAVILNPTLVASRNIQLEPPYRGGPVLADNAVIPVERTQVPTEWDELRDSVSHIIDELGPTPEQPKGPFGEVIEAFADGLAGKGKQINTTLNSLSQALNALNEGRGDFFAVVRSLALFVNALHQDDQQFVALNKNLAEFTDRLTHSDADLSNAIQQFDSLLAVARPFFAKNREVLTHDVNNLATVTTTLLQPDPLDGLETVLHIFPTLAANINQLYHPTHGGVVSLSAFTNFANPMEFICSSIQAGSRLGYQESAELCAQYLAPVLDAIKFNYFPFGLNVASTASTLPKEIAYSEPRLQPPNGYKDTTVPGIWVPDTPLSHRNTQPGWVVAPGMQGVQVGPITQGLLTPESLAELMGGPDIAPPSSGLQTPPGPPNAYDEYPVLPPIGLQAPQVPIPPPPPGPDVIPGPVPPTPAPVGAPLPAEAGGGQ | failed |
| MSELGNRAKDQKKIYQRWAPVYDRVYRGILRDGHRKLAGLAAAAGTDILEIGTGTGLTLAHYPSRCRVTGIDISEHMIARAREKVRRENLRHVRALEVMDAHVLRFADKSFDVVCLPFVITLIPEPERALDECARVLRPGGEIILASKLGDGAGLQGAIEAAVAPLVRHIGWSSAFRIHRIVAWAERRGDFSTAEILPVFPNGFFKIVRLKQRGFSA | failed |
| MKVYLHFSPQFFANTYLIGNEITKEAVIIDPAKITEKMIHQIEKNEFNLKAVLLTHDLEHPYETGLNTILKIYSPKVYAGSCFSENVTINTLRGDGCIDVAGYSVRYFAIPAHSSYSYMFQIENMVFTGTSLSAGMIGQTSNMYAERTLRNILKTKLMCFEDNLIIMPFYGPPTSIGVERKYNASFFQDLEHHHHHH | failed |
| MTNVISYNNDKGLLAYIQFLADRALKPSNGNTDPVFDFEDALDQTEMAQLAVDELKKIPEVNTLFAERWLPAPFNLDDLAKLPEGTLGHVYAIEMKARGFDPYFYKKVPVVDDISYLKMLWRSTHDIYHVVAGFDTDGIGEIGLQAFVLAQTPIPISVMLVSFGMVMTSLYQPAKFQDLMAEIARGYSLGSHTPRKLIAQKWDQFWDVPVIEIRECLGMNTVKQRERA | failed |
| MRLSISLGESPCISSLKVRGFTASPQTPNLSISVIVTAFNRREYLRYALLSLKNQEADSFEVVVSKNFSDRVTDKFCSENGFINVTTDSSRSGERVYDALRSSHGDFILFLDDDDIFRRTKISRVSDVISKRNVAFYRNAIFPVTVDGVIATHYQPQMHDPLYLILERVSDVRLLHRHACDFNSSSMGISRSMLDSHASDLRKINLAVDTFYFALAASSRMPLFCDSMIESIYRIMPSSTSRDLRDFYLFSRFERSFLRRYVPDLERIAEIVEGSPAKPVIGRMLSLYKILQYVFEEDRVNLKPSPLDRVRFLLERPFPYSLLYSRIFRDAAMRSEFRRENRIVYGNADRRRRLEHHHHHH | not failed |
| MIQMDGGDRLRVTLLDRMSTVESSRSCLTLEAILMADKNRTSPQILSPPPSRSQSNRSLVEVMQREHRHSRDKTAWKSLREKLRLKRNGSVWISSNSIPSLDTPIPNRDNVSHQLGFLLSNSGNVTEEASSVEGRIRLGAVLAEERALSAREEETPAEREVEPARMSLMELLEENEGQMSFVSVDGEAEEEVAAVTAAEISCCVCMVRSKGAAFIPCGHTFCRLCSRELWVQRGNCPLCNTTILEVLDLF | failed |
| MSSTSKIHAKITGPIVMIGFGSIGKGALPLIERHFEYDKKRFVIIDPHEDGELAKKHGVRFIKQAVTKDNYRELLVPLLTEGGGQGFCVNLSVDTGSVDLMTMCREIGALYIDTVVEPWLGFYFDKNAGPEKRSNYALRETLLAAKAKNPGGTTAVSTCGANPGMVSWFVKQALLDIARDTGLEFNEPKSREGWGQLAQKLGVKGIHIAERDTQRAKTPKPMNVFVNTWSVEGFVSEGLQPAELGWGTHEKWIPDNGRKHTEGCQAAIYLLQPGANTRVRTWCPTPGPQYGFLVTHNESISIADYFTVRDGQNVVYRPTCHYAYHPANDAVLSLHEMFGAEGKMQPKWHILDENEIVDGIDELGVLVYGHAKNAYWYGSQLSIEETREICPYQNATGMQVSSAVLAGMVWALENPEAGIVEADEMDFRRCLEVQKPYLGPVKGYYTDWTPLTDRPGLFPEDIDSSDPWQFKNVLVR | failed |
| MMSQSERPDVAEIRVPFRDVDMNGQMFLASYISYAESVLASFWSSRPDVDDEPVYSPSKVSCFLHRPLHYDEPATFTATIDKIGVRSIGFLISIDTGEERAAEVEIIWQAHAPEDQSPASLPEETRDWLYRFLN | failed |
| MKNVLILGAGGQIARHVINQLADKQTIKQTLFARQPAKIHKPYPTNSQIIMGDVLNHAALKQAMQGQDIVYANLTGEDLDIQANSVIAAMKACDVKRLIFVLSLGIYDEVPGKFVEWNNAVIGEPLKPFRRAADAIEASGLEYTILRPAWLTDEDIIDYELTSRNEPFKGTIVSRKSVAALITDIIDKPEKHIGENIGINQPGTDGDKPFFM | not failed |
| MIFVLLICPLFIFIVSVIGTRKTKTYYVMPIVTFASFLIIGVIAFTPKFFFWVGMYSIFSFIVSYMTLLFVKGYEVAENAK | failed |
| YWGPLDVGEAKSLPGMEDPKLVYIPSIAPSNMVLYRGDKYSELDGKILVGALKLTHINVVGINDGKLTESQRLLEKLGERIRDITISPDGYIYFSTDSGKIFRLTEQ | failed |
| MIISFVIQVGLFPDSLERKVIRHIENGDHLTCFLFLNYLHVLIQGFSFGGYRVLYKERELSRICPAIRFQRKSFTEVRMILSHHPSFSLVNDPQEIAQIAEWGEEQIAQYKERVTGEGKQRDIDRGKPMAQASLDEAAFLLNLASLEGTWDESLERVAQCYKEAGLNDIAKFVLYRD | failed |
| MLSFILSIFPIVLLIYLMVKRNALPSYVALPWVATLVMGVHLLHFNTDIVTISANVVSAIIAVQTPITVIFGAILFNRFSEISGATNIMRKWLGNINPNPVAQLMIIGWAFAFMIEGASGFGTPAAIAAPILVGLGFHPLKVAMLALIMNSVPVSFGAVGTPTWFGFGALKLSEDMILEIGSITAFIHSIAALIIPLLALRILVNWDDIRKNIVFIYISVLGCVVPYFLIAQVNYEFPSLVGGAIGLFISVWAANRNIGLAKVTNTLDNNAVSAGEVVKALFPTGLLIAFLIVTRIHQLPFKAMMNDATIWFSTTLGSLGLFEISKGLIFSLKNIFGSNVSSSYKLLYVPALIPFVITVLIAIPFFKISSSNVKQILVSSLQQSKNPFIALIGALVMVNLMLVGGEHSMVKIIGRTFAEISGSNWTIFSSFLGAIGSFFSGSNTVSNLTFGSVQLSTAETTGISVALVLALQSVGGAMGNMVCINNIVAVSSVLNISNQEGTIIKKTIIPMIIYGIIAALGALFLVPLFYNL | failed |
